Experimental data taken from PMC9927289, “Control of Cell Size by c-di-GMP Requires a Two-Component Signaling System in the Cyanobacterium Anabaena sp. Strain PCC 7120” (Microbiology Spectrum, 2023).
Positions count from the first letter of the chain named. Numbers in names are those of the source.

Legend:
[1] = substrate: Nc1nc2c(ncn2[C@@H]2O[C@H](COP(=O)(O)OP(=O)(O)OP(=O)(O)O)[C@@H](O)[C@H]2O)c(=O)[nH]1; test: diguanylate cyclase assay, Michaelis-Menten and Lineweaver-Burk; type: biochemical, Nostoc sp. PCC 7120 = FACHB-418; conditions: c-di-GMP synthesis; GTP varied
Description: diguanylate cyclase assay, Michaelis-Menten and Lineweaver-Burk on CdgS (All2874) | kinetic curves for c-di-GMP synthesis of CdgS and CdgS^D60A followed Michaelis–Menten kinetics

[2] = substrate: Nc1nc2c(ncn2[C@@H]2O[C@H](COP(=O)(O)OP(=O)(O)OP(=O)(O)O)[C@@H](O)[C@H]2O)c(=O)[nH]1; test: as above; type: biochemical, Nostoc sp. PCC 7120 = FACHB-418; conditions: c-di-GMP synthesis; GTP varied; remark: listed apart in the source
Description: diguanylate cyclase assay, Michaelis-Menten and Lineweaver-Burk on CdgS (All2874) | CdgS^D60A could still synthesize c-di-GMP using GTP as the substrate

B1: CdgS (All2874) (Nostoc sp. PCC 7120 = FACHB-418) (protein)
chain: MKNTVPESQCLILIVDDEPFIRAQLRLSLQCEGYRTAEAEDGRQALAIFQELQPDIVLLDAIMPDLDGFECCTRLQLLEDGKYTPVLMITGLEDQESVDRAFEVGAIDYVTKPIHWPVLRQRVKRLIQQFHLQQKLEAANRELQRLVTIDELTQVANRRRFEEYCAQEWQRMARDQLPLSLILCDVDFFKAYNDTYGHRAGDRCLQLVAKAIESCVNRPADVVARYGGEEFAVILPRTYPDGAIHLANAICTAVRELQITHLTSQANTCVTISAGVATEIPVPNSDFQEIINAADRALYQAKMTGRDGCQQYIKQSSSPVYFLNAHHRLA
notes: REC-GGDEF response regulator; recombinant from E. coli BL21(DE3), pHTwinStrep vector (two tandem C-terminal Strep-tags)
[1]
  Km: 5.84 µM
  kcat: 73.68 s⁻¹

B2: CdgS (All2874) (Nostoc sp. PCC 7120 = FACHB-418; D60A) (protein)
chain: B1 chain with D60A
notes: as for B1
[2]
  Km: 6.33 µM
  kcat: 60.53 s⁻¹
